Reference: the nanobody polyreactivity screen of Harvey et al. (2022)

Assay: yeast display, Sf9 membrane polyspecificity reagent, FACS + sequencing; frameworks hold sequencing errors
Summary of the method: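 In a synthetic yeast display library (Saccharomyces cerevisiae BJ5465), nanobody expression was induced with galactose for 36–48 hours. FACS gates were set low and high (top ~1%) using anti-HA fluorescence for expression and streptavidin fluorescence for binding of the Sf9 membrane reagent. Each polyreactivity label is drawn from the gate of origin.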

QVQLVDSGGGLVQAGGSLRLSCAASGRTFWIYAMGWYRPAPGKERELVAAISRGGSTYADSVKGRFTISRDNAKNTVYLQMNSLKPEDTAVYYCAASTPQYQYYYWGQGTQVTVSS
polyreactivity (PSR sort gate): high polyreactivity

QVQLVESGGGLVQAGGSLRLSCAASGSIFRVYAMGWYRQAPGKERELVASISRRGGSTYYADSVKGRFTISRDNAKNTVYLQMNSLKPEDTAVYYCAAEFVIGGHGYDYWGQGTQVTVSS
polyreactivity (PSR sort gate): high polyreactivity

QVQLVESGGGLVQAGGSLRLSCAASGRTFYPYTMGWYRQAPGKEMELVAAITTSTGNTYYADSVKGRFTISRDNAKNNVYLQMNILKPEDTSVYYCAADTVWRLDYWGQGTKVTVSS
polyreactivity (PSR sort gate): low polyreactivity

QVQLVESAGGLVQAGGSLRLSCAAYGRTLAKYAMGWYRQAPGKERELVAAITRDGSTNYADSVKGRFTISRDNAKNTVYLQMNSLKPEDTAVYYCATRSYWYRVYYWGQGTQVTVSS
polyreactivity (PSR sort gate): high polyreactivity

QVQLVESGGGLVQAGGSLRLSCAATGSIFRRNAMGGYRQAPGKERELVAAISSNGGSTYYADSVKGRFTISRDNAKNTVYLQMNSLKPEDTAVYYCNALGRVRYPFDYWGQGTQVTVSS
polyreactivity (PSR sort gate): high polyreactivity

QVQLVESGGGLVQAGGSLRLSCAASGYNLSVNAMGWYRQAPGKERELVATIDIAGGSTYYADSVNGRFTISRDNAKNTVYLQMNSMKPVDTAVYYCNTEWNSLSKSSLGGRYDHWGQCTQVTVSS
polyreactivity (PSR sort gate): low polyreactivity

QVQLVESGGGLVQAGGSLRLSCAASGSTFWIYAMGWYRQPPGKERELVAAISWSTGRTYYADSVKGRFTISRDNAKNTVYLQMNSLKPEDTAVYYCNAGPQHNTLKLFYYWGQGTQVTVSS
polyreactivity (PSR sort gate): low polyreactivity

QVQLVESGGGLVQAGGRLRLSCAASGRIFGSYAMGWYRQAPGKERELVAAITFSGVNTYYADSVKGRFTISRDNAKNTVYLQMNRLKPEDTAVYYCAVRGPEAEYDYWGQGTQVTVSS
polyreactivity (PSR sort gate): high polyreactivity

QVQLVESGGGLVQAGGSLRLSSAASGFIFYQYAMGWYRQAPGKERELVAAISKSGGNTYYADSVKGRFTISRDNAKNTVYLQMNSLKPEDSAVYYCAADRGQRGMYYWGQGTQVSVSS
polyreactivity (PSR sort gate): high polyreactivity

QVQLVESGGGLVQAGGSLRLSCASSGLIFYDNMGWYRQAPGKETELVAAISSSGGSTSYADSVKGRFTISRDNAKNTVYLQMNSLKPEDTAVYYCAADSYPAYLGFFGFDYWGQGTQVTVSS
polyreactivity (PSR sort gate): low polyreactivity

QVQLVESGGGIVQAGGSLRLSCAASGLIFYYYALGWYRQAPGKERQLVAAITSGSTTYADSVKGRFTISRDNAKNTVYLQMNSLKPEDTAVYYCNKDQDYKLTTTFDYDYWGQGTQVTVSS
polyreactivity (PSR sort gate): low polyreactivity

QVQLVESGGGLVQAGGSLLLSCAASGSIFYSNAMAWYRQAPGKERELVATITWSGGRTYYADSVKGRFTISRDNAKNTVYLQMNSLKPDDTAVYYCAAVSIYWGQGTQVTVSS
polyreactivity (PSR sort gate): low polyreactivity

QVQLVESGGGLDQAGGRLRLSCPASGRIFQANAMGRYRQAPGKERELVAAITNRGGSTYADSVKGRFTISRDNAKNTVYLQMNSLKPEDTAVYYCAADVSRYVQRDNYWGQGTQVTVSS
polyreactivity (PSR sort gate): low polyreactivity

QVQLVESCGCLVQAVGSLRLSCAASRFIFRLYAMVWYRQAPGKERELVAAISSGTSTYYADSVKVRFTISRDNAKNTVYLQMNSLKPEETEVYYCAAVPRVNWSRYVYFWYDYWGEGTQVTVSS
polyreactivity (PSR sort gate): high polyreactivity

QVQLVESGGGLVHAGGSLRLSCAASGSTFRHNAMGWYRQAPGKERELVAAINRSGVSTHYADSVKGRFTISRDNAKNTVYLQMNSLKPEDTAVYYCAVDSYPKSLWYYGGVYSPLDYWGQGTQVTVSS
polyreactivity (PSR sort gate): low polyreactivity

QVQLVESGGGLVQAGGSLRLSCAASGSIFSTYAMGWSRQAPGKERELVAAINRSGGSTTYADSVKGRCTISRDNAKNTVYLQMNSLKPEDTAVYYCAKAFRGHYWGQGTQVSVSS
polyreactivity (PSR sort gate): high polyreactivity

QVQLVESGGGLVQAGGSLRLSCAASGSILRYYAMGWYRQAPGKERELVAAITGRGGRTYYADSVKGRFTISRDNAKYTVYLQMNSLKPEDTAVYYCAADGDNPYLHEEDYWGQGTQVTVSS
polyreactivity (PSR sort gate): high polyreactivity

QVQLVESGGGLDQAGGRLRLSSAASGTTFAVNAMGWYRQAPGKERELVAAITSGGSTKYADSVKGRFTISRDNAKYSVYFQMNSLKREDSAVYYIPDSKLWALGWKFYYWGQGTQVTVSS
polyreactivity (PSR sort gate): low polyreactivity

QVQLVESGGGLVQAGGSLRFSCAASGITFRRYAMGWYRQAPGKERELVASISRGGSTYYADSVKGRFTISRDNAKNTVYLQMNSLKPEDTAVYYCAADVAWRYDYWGQGTQVNVSS
polyreactivity (PSR sort gate): high polyreactivity

QVQLVESGGGLVQAVGSLRLSSAASGSIFYVYAMGWYRQAPGKERELVAAMTNYADSVKGRFTISRDNAKNTVYLQMNSLKPEDTAVYYCAADWWRVEMDYWGQGTQVTVSS
polyreactivity (PSR sort gate): low polyreactivity

QVQLVESCGGLVQAGGSLRLSCAASGIIFWWYTMGWYRQAPGKERELVAAISRGGNTNYADSVKGRFTISRDNAKNTVYLQMNSLKTEDTAFYYCAADRHYRFWQYDYWGQGTQVTVSS
polyreactivity (PSR sort gate): high polyreactivity

QVQLVESGGGLVQAGGSLRLSCAASGRIFSYTAMGWYRQAPGKERELVAAITRVDNTNYADSVKGRFTISRDNAKNTVYLQMNSLKPEDTAVYYCNARQHQVRWWLREFDYWGQGTQVTVSS
polyreactivity (PSR sort gate): low polyreactivity

QVQLVESGGGLVQAGGSLRLSCAASGITFYKYAMGWYRQAPGKERELVASISNGGNTNYADSVKGRFTISSDNAKNTVYLQMNSLKPEDTAVYYCAAGRQWYSYYRNDYWGQGTQVTVSS
polyreactivity (PSR sort gate): high polyreactivity

QVQLVESGGGLVQAGGSLRLSCAASGRTFGRYAMGWYRQAPWKERELVAVINGGGSTYYADSVKGRFTISRDNAKNTVYLQMNSLKPEDTAVDYCAVGGYTRTGGWFDYWGQGTQVTVSS
polyreactivity (PSR sort gate): high polyreactivity

QVQLQESGGGLVQAGGSLRLSCAASGSIFKGVDMGLYRQAPAKEREFVATIGEGGNTYYADSVKGRFTISRDNAKNTVYLQMNSLKPEDTAVYFYAVVLGTSYRYTYWGQGTQVTVSS
polyreactivity (PSR sort gate): low polyreactivity

KVQLQESDGALVQAGGSLRLSCAASGSISPQYYMGWYRQAPGKEREFVAISKGTTTYYADSVKGRLTISRVNAKNTVYLQMNSLKPEDTAVYCCAAGRWLQKVPAYWDQGTQVTVSS
polyreactivity (PSR sort gate): low polyreactivity

QVQLVESGGGLVQAGGSLRLSCAASGRTFNRYAMGWYRQAPGKEREFVASITRSGGSTYYADSVKGRFTISRDNAKNTVYLQMNSLKPEDTAVYYCAAQLRYKYDYWGQGTQVTVSS
polyreactivity (PSR sort gate): high polyreactivity

QVQLVESRGGLVQAGGSLRVSCAASGRTFGVNAMGWYRQAPGKERELVAAISTSGGSTYYADSVKGRFTISRDNAKNTVYLQMNSLIPEDTAVYYCNTGRGRYVHGRDYDYWGQGTQVTVSS
polyreactivity (PSR sort gate): low polyreactivity

QVQLVESGGGLVQAGGSLRLSCAASGFIIYFNAMGWYRQAPGKERELVAAISASGGRTYYADSVKGRFTISRDNAKNTVYLQMNSLKPEDTAVYYCAADIRGYDYWGQGTQVTVSS
polyreactivity (PSR sort gate): high polyreactivity

QVQHVESGGALVQAGGSLRLSCAASGSTFIKYAMGWYRQAPGKERELVAAISRSGASTYYADSVKGRFTLSRDNEKNTVYLQMKSLKPEDTAVYYCAARRRYLDHGYWGQGTQVTVSS
polyreactivity (PSR sort gate): high polyreactivity

QVQLVESGGGLVQAGGSLRLSCAASGSIFQTYAMGWYRQAPGKERELVAAITSGGGSTYYADSVKGRFTISRDNAKNTVYLQMNSLKPEDTAVYYCNRLYRYLVWPAGEYDYWGQGTQVTVTS
polyreactivity (PSR sort gate): high polyreactivity

QVQLVESGGGLVQAGGSLRLSCAASGYIFSLNAMGWYRQAPGKERELVAGIRKRGGSTYYADSVKGRFTISRDNAKNTVYLQMNSLKPEDTAVYYCAAQPALTYRFYYWGQGTQVTVSS
polyreactivity (PSR sort gate): high polyreactivity

QVQLVESGGGLVQAGGSHRISCAASGFIFPYYAMGWYRQAPGKERELVAAITSGGSTNYADSVKGRFTISRDNAKNTVYLQMTSLKPEDTAVYYCDKRLKRWSVYCRYDYWGQGTQVTVSS
polyreactivity (PSR sort gate): high polyreactivity

QVQLVESGGGLVQAGGSLRLSCAASGSNFGYYAMGWYRQAPGQERELVAAINSSGGSTYYADSVKGRFTISRDNAKNTVYLQMNSLKPEDTAVYYCAVRTRYKFNYWGQGTQVTVSS
polyreactivity (PSR sort gate): low polyreactivity

QVQLVESGGGLVQAGGSLRLSCAASGYTFPFYTMGWYRQAPGKERELVAAINSGGSTYYADSVKGRFTISRDNAKNTVYLQMNSLKPEDTAVYYCGAGRHSEDNYWGQGTQVTVSS
polyreactivity (PSR sort gate): high polyreactivity

QVQLVESGGGLVQAGGSLRLSCAASGSTFVRNDMGWYRQAPGKERELVAAINGDGRTYYADSVKGRFTISRDNAKNTVYLQLNSLKPEDTAVYYCAADGYLLYVQHPNGRRYDYWGQGTQVTVSS
polyreactivity (PSR sort gate): low polyreactivity

QVQLVESGGGLVQAGGSLRLSCPASGSISYFNAMGGYRQAPGKERELVAAITSCGSTYYADSVKGRFTISRDNAKNSVYLQMNSLKPEDTAVYYCAADDSWFYYGYGYWGQGTQVTVSS
polyreactivity (PSR sort gate): low polyreactivity

QVQLVESGGGLVQAGGSLRLSCAASGRTFSYYAMGWYRQAPAKERELVAAIRSTGSTNYADSVKGRFTISRDNAKNTVYLQMNSLKPEDTAVYYCAARKYYQRGYDYWGQGTQVTVSS
polyreactivity (PSR sort gate): high polyreactivity

QVQLVESGGGLVQAGGSLRLSCAASGFIFRVNAMGWYRQAPGKERELVATITWNGGSTYYADSVKGRFTISRDNAKNTVYLQMNSLKPEDTAVYYCNRVRYRGYYPGPYSYSYDYWGQGTQVTVSS
polyreactivity (PSR sort gate): low polyreactivity

QVQLVESGGGLVQAGGSLRLSCAASGNTFYGYAMGWYRQAPGKERVLVATIDSGGSTNYADSVKGRFTISRDNAKNTVYFQMNSLKPEDTAVYYCAADGVWYYNDMDYWGQGTQVTVSS
polyreactivity (PSR sort gate): low polyreactivity

QVQLVESGGGLVQAGGSLRLSCAASGLTFYYYAMGWYRQAPGKEREFVAAISRSGGTTYYADSVKGRFTISRDNAKNTVYLQMISLKPEDTAVYYCNAQWWRYWPSQVIFDYWGQGTQVTVSS
polyreactivity (PSR sort gate): high polyreactivity

QVQLVESGGGLVQAGGSLRLSCAASGFTFEKNAMGWYRQAPGKERELVAAISRGGSTYADSVKGRFTISRDNAKNTVYLQMNSLKPEDTAVYYCAGDTVYIFSSAINGEFGYWGQGTQVTVSS
polyreactivity (PSR sort gate): low polyreactivity

QVQLVESGGGLVQAGGSLRLSCAASGSTFPWNAMGWYRQAPGKERELVAAIRTGGGRTYYADSVKGRFTISRDNAKNTVYLQMNSLKPEDTAVYYCNAYQSSGRYRNSYGYWGQGTQVTVSS
polyreactivity (PSR sort gate): high polyreactivity
